In patent publication US20240294622A1 (SUZHOU TRANSCENTA THERAPEUTICS, published 2024):

T1: human Gremlin N33T (C-terminal His-tag) (human, UniProt O60565 25-184)
T1 construct: culture supernatant used
T1 chain: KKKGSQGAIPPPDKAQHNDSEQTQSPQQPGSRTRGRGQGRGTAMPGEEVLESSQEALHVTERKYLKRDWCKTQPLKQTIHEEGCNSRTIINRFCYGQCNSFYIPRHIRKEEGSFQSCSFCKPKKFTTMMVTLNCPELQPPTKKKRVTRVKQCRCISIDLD

T2: human Gremlin_Q27P/N33T (C-terminal His-tag) (human, UniProt O60565 25-184 at identity 1.00))
T2 construct: culture supernatant used
T2 chain: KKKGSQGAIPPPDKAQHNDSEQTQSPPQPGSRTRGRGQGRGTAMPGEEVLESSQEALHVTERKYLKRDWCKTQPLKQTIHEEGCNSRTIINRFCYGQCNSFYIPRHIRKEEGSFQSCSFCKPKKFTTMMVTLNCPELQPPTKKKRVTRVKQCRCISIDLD

T3: human Gremlin_Q27P (C-terminal His-tag) (human, UniProt O60565 25-184)
T3 construct: culture supernatant used
T3 chain: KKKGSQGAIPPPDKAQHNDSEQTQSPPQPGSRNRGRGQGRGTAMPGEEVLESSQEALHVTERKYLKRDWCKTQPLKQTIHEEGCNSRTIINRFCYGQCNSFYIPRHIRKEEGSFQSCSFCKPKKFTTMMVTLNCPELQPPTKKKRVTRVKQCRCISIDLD

T4: HGREM1-His (ACRO) (human, UniProt O60565 25-184)
T4 construct: Lys25-Asp184 of NP_037504 with C-terminal polyhistidine tag (ACRO GR1-H52H3); they are put here; also called hGREM1 (ACRO); human gremlin (ACRO)
T4 sequence: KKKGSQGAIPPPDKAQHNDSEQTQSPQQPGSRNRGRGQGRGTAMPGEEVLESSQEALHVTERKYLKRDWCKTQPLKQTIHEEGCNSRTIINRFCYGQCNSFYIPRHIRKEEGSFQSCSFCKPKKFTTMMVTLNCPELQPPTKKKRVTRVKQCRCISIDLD

T5: DAN-his (Sinobiological) (human, UniProt P41271 17-181, limits assumed)
T5 construct: also called DAN (Sinobiological); human DAN-his
T5 sequence (looked up): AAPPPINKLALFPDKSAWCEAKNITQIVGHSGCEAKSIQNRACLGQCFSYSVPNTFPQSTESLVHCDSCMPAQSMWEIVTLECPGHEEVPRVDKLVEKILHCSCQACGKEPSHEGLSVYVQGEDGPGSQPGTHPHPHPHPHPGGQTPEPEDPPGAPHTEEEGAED

B1: 14E3 (antibody, V domains shown)
VH: QIQLVQSGPELKKPGETVKISCKTSGSTFTTYGMAWMKQAPGKGLTWMGWINTLSGEPTYADDFKGRFAFSLKTSANTAYLQINNLKNEDAATYFCAREPMDYWGQGTSVIVSS
VL: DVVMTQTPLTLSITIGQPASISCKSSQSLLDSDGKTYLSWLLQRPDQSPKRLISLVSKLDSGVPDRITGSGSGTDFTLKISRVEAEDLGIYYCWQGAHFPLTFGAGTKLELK
notes: mouse hybridoma antibody; also called hybridoma 14E3; anti-gremlin1 antibody 14E3
B2: 36F5 (antibody, V domains shown)
VH: QVQLQQSGAELARPGASVKLSCKASGYSFTSSGIGWVKQRSGQGLEWIGEIYPRSGNTYNNEKFKGKATLTADKSSSTVYMELRSLTSEDSAVYFCVREAYSHHYYAMDYWGQGTSVTVFS
VL: DVLMTQTPLSLPVSLGGQASISCRSSQSLLHSNGNTYLEWYLQKPGQSPKLLIYKVSNRFSGVPDRLSGSGSGTDFTLKISRVEAEDLGVYYCFQGSHVPFTFGSGTKLEIN
notes: mouse hybridoma antibody; also called hybridoma 36F5

Tests used:
[1] = biological target: T1, human Gremlin N33T (C-terminal His-tag); test: BLI (Octet): antibody loaded on AHC sensor, supernatant of the gremlin variant as analyte
Procedure: (§1) The supernatant for Gremlin WT and mutants to be tested were added in the Association Column of the plate, 100 ul per well. Media or KD buffer was used as a reference control. Put AHC sensors in the 1st Baseline Column for 60 s to get the 1st baseline, then in the Loading Column for 300 s to capture the Gremlin antibody. After that, put the sensors in the 2nd Baseline Column for 60 s to get the 2nd baseline. Then put them in the Association Column for 300 s to let Gremlin/Gremlin Ab associate completely, put the sensors in the dissociation Column for 300 s. Analyze the group data by ForteBio (Octet96)

[2] = biological target: T2, human Gremlin_Q27P/N33T (C-terminal …); test: as above
Procedure: as §1

[3] = biological target: T3, human Gremlin_Q27P (C-terminal His-tag); test: as above
Procedure: as §1

[4] = biological target: T4, HGREM1-His (ACRO); test: competition ELISA, Gremlin-his binding to coated BMP7
[5] = biological target: T5, DAN-his (Sinobiological); test: ELISA on coated DAN-his; unit from the axis Ab(nM)
Procedure: Clear polystyrene plates (BEAVER) were coated with 100 μl/well of a 0.5 μg/ml human gremlin (ACRO) and DAN (Sinobiological) in high pH coating buffer overnight at 4° C. Then the plates were washed once on an automatic plate washer using PBS+0.1% Tween 20 (Sigma). 100 μl of block solution consisting of PBS+1% BSA+1% normal goat serum+0.5% Tween 20 (Sigma) was added to each well and incubated at room temperature for 2 hours. Then 100 ul of antibodies (hybridoma or chimeric antibody 36F5, chimeric antibody 67G11, chimeric antibody 42B9) in antibody dilution buffer containing PBS+1% BSA+1% normal goat serum+0.01% Tween 20 starting from 2 μg/ml (13.33 nM) and then 4 fold serial dilution were added to each well of the plate and incubated for 1 hours at room temperature. Afterward the plates were washed three times with 200 ul of PBS+0.1% Tween20 followed by adding 100 μl/well 1:10000 Goat anti mouse IgG-HRP or mouse anti-human IgG-HRP (abcam), and incubate for 1 hour at room temperature. They were then washed 3× with PBS+0.1% Tween20. Finally, 100 μl/well of TMB (InnoReagents) was added to each well and after 2 minutes add 50 ul of stop solution to each well. The plates were read on a Multiscan FC microplate reader (Thermo Scientific) at 450 nm.

| Binder | binding result [1] | binding result [2] | binding result [3] | maximal blocking percentage [4] [%] | EC50 [5] [nM] |
| --- | --- | --- | --- | --- | --- |
| B1 | binds | binds | binds | – | – |
| B2 | – | – | – | ≥ 50 | 0.0309 |
